Residue numbers refer to the chain shown, from its start. Several values for one entry are separate records, joined by “and”; a condition that tells them apart may be missing. Identical values can stand only once.
B1: Thr297Met: NPR2 protein-altering variant, expression construct transfected into HEK293 cells (protein)
chain: RNLTLAVVLPEHNLSYAWAWPRVGPAVALAVEALGRALPVDLRFVSSELEGACSEYLAPLSAVDLKLYHDPDLLLGPGCVYPAASVARFASHWRLPLLTAGAVASGFSAKNDHYRTLVRTGPSAPKLGEFVVTLHGHFNWTARAALLYLDARTDDRPHYFTIEGVFEALQGSNLSVQHQVYAREPGGPEQATHFIRANGRIVYICGPLEMLHEILLQAQRENLTNGDYVFFYLDVFGESLRAGPTRATGRPWQDNRTREQAQALREAFQTVLVIMYREPPNPEYQEFQNRLLIRAREDFGVELGPSLMNLIAGCFYDGILLYAEVLNETIQEGGTREDGLRIVEKMQGRRYHGVTGLVVMDKNNDRETDFVLWAMGDLDSGDFQPAAHYSGAEKQIWWTGRPIPWVKGAPPSDNPPCAFDLDDPSCDKTPLSTLAIVALGTGITFIMFGVSSFLIFRKLMLEKELASMLWRIRWEELQFGNSERYHKGAGSRLTLSLRGSSYGSLMTAHGKYQIFANTGHFKGNVVAIKHVNKKRIELTRQVLFELKHMRDVQFNHLTRFIGACIDPPNICIVTEYCPRGSLQDILENDSINLDWMFRYSLINDLVKGMAFLHNSIISSHGSLKSSNCVVDSRFVLKITDYGLASFRSTAEPDDSHALYAKKLWTAPELLSGNPLPTTGMQKADVYSFGIILQEIALRSGPFYLEGLDLSPKEIVQKVRNGQRPYFRPSIDRTQLNEELVLLMERCWAQDPAERPDFGQIKGFIRRFNKEGGTSILDNLLLRMEQYANNLEKLVEERTQAYLEEKRKAEALLYQILPHSVAEQLKRGETVQAEAFDSVTIYFSDIVGFTALSAESTPMQVVTLLNDLYTCFDAIIDNFDVYKVETIGDAYMVVSGLPGRNGQRHAPEIARMALALLDAVSSFRIRHRPHDQLRLRIGVHTGPVCAGVVGLKMPRYCLFGDTVNTASRMESNGQALKIHVSSTTKDALDELGCFQLELRGDVEMKGKGKMRTYWLLGERKGPPGLL
B2: Arg601Ser: NPR2 protein-altering variant, expression construct transfected into HEK293 cells (protein)
chain: B1 chain with M275T, R579S
B3: Glu389Asp: NPR2 protein-altering variant, expression construct transfected into HEK293 cells (protein)
chain: B1 chain with M275T, E367D
B4: HIS508Asp: NPR2 protein-altering variant, expression construct transfected into HEK293 cells (protein)
chain: B1 chain with M275T, H486D
B5: Thr861Ile: NPR2 protein-altering variant, expression construct transfected into HEK293 cells (protein)
chain: B1 chain with M275T, T839I
B6: Thr377Asn: NPR2 protein-altering variant, expression construct transfected into HEK293 cells (protein)
chain: B1 chain with M275T, T355N
B7: Ile494Ser: NPR2 protein-altering variant, expression construct transfected into HEK293 cells (protein)
chain: B1 chain with M275T, I472S
B8: Glu727Gln: NPR2 protein-altering variant, expression construct transfected into HEK293 cells (protein)
chain: B1 chain with M275T, E705Q
B9: Glu359Ala: NPR2 protein-altering variant, expression construct transfected into HEK293 cells (protein)
chain: B1 chain with M275T, E337A
B10: Pro301Ser: NPR2 protein-altering variant, expression construct transfected into HEK293 cells (protein)
chain: B1 chain with M275T, P279S
B11: Gly209Val: NPR2 protein-altering variant, expression construct transfected into HEK293 cells (protein)
chain: B1 chain with G187V, M275T
B12: Arg562Gln: NPR2 protein-altering variant, expression construct transfected into HEK293 cells (protein)
chain: B1 chain with M275T, R540Q
B13: His552Arg: NPR2 protein-altering variant, expression construct transfected into HEK293 cells (protein)
chain: B1 chain with M275T, H530R
B14: Lys629Arg: NPR2 protein-altering variant, expression construct transfected into HEK293 cells (protein)
chain: B1 chain with M275T, K607R
B15: Val553Leu: NPR2 protein-altering variant, expression construct transfected into HEK293 cells (protein)
chain: B1 chain with M275T, V531L
B16: Ser522Pro: NPR2 protein-altering variant, expression construct transfected into HEK293 cells (protein)
chain: B1 chain with M275T, S500P
B17: Lys480Asn: NPR2 protein-altering variant, expression construct transfected into HEK293 cells (protein)
chain: B1 chain with M275T, K458N
B18: Leu1009Val: NPR2 protein-altering variant, expression construct transfected into HEK293 cells (protein)
chain: B1 chain with M275T, L987V
B19: Arg263His: NPR2 protein-altering variant, expression construct transfected into HEK293 cells (protein)
chain: B1 chain with R241H, M275T
B20: Glu77Lys: NPR2 protein-altering variant, expression construct transfected into HEK293 cells (protein)
chain: B1 chain with E55K, M275T
B21: Ala48Ser: NPR2 protein-altering variant, expression construct transfected into HEK293 cells (protein)
chain: B1 chain with A26S, M275T
B22: Lys1006Thr: NPR2 protein-altering variant, expression construct transfected into HEK293 cells (protein)
chain: B1 chain with M275T, K984T
B23: Ala59Thr: NPR2 protein-altering variant, expression construct transfected into HEK293 cells (protein)
chain: B1 chain with A37T, M275T

system: NPR2; assay: cGMP catchpoint assay of NPR2 variants in transfected HEK293 cells treated with 20 nM CNP; type: cell-based; design: key to Lable: loss-of-function (LoF); Gain-of-function (GoF); settings: cGMP normalized to RedLuciferase and to WT = 1; HEK293, 20 nM CNP, 0.4 nM IBMX; at least 3 repeat experiments with 4 replicates each
Protocol: Described herein is an in-vitro assay (cGMP) to assess the activities of >260 NPR2 variants. NPR2 protein-altering variants have been identified in the UK Biobank study and described in Estrada et al. (Nat Commun. 2021 12 (1): 2224). NPR2-expression constructs were transfected into HEK293 cells and 3 days later cells were treated with […] IBMX and 20 nM CNP in serum-free DMEM prior to measuring cGMP levels. The cGMP catchpoint ELISA competition assay (Molecular Devices) was used to measure cGMP according to manufacturer recommendations. RedLuc was used as a transfection control (FIG. 8A).
The NPR2 alpha-fold structure was obtained from a recent alpha-fold publication (Jumper et al., Nature 596:583-589 (2021)). A list of phenotypically characterized “high-confidence” variants was generated (Table 4). Phenotype is calculated by determining levels of cGMP using a standard curve. This value to normalized to RedLuciferase (transfection control). This value is further normalized by setting WT to 1. Average value is calculated from at least 3 repeat experiments with 4 replicates each.

Molecule | average phenotype
B1 | 0.03025
B2 | 0.05949
B3 | 0.07079
B4 | 1.74
B5 | 0.07978 and 0.01124
B6 | 0.01062
B7 | 0.03638
B8 | 1.705
B9 | 2.998
B10 | 0.08478
B11 | 0.08861
B12 | 1.554 and 1.629
B13 | 1.794
B14 | 1.493
B15 | 1.515
B16 | 0.05673
B17 | 1.689
B18 | 0.0847
B19 | 1.863
B20 | 0.04986
B21 | 0.06785
B22 | 0.0551
B23 | 3.735

same assay, conditions: high-confidence variant class

Molecule | Lable
B1 | LoF
B2 | LoF
B3 | LoF
B4 | GoF
B5 | LoF
B6 | LoF
B7 | LoF
B8 | GoF
B9 | GoF
B10 | LoF
B11 | LoF
B12 | GoF
B13 | GoF
B14 | GoF
B15 | GoF
B16 | LoF
B17 | GoF
B18 | LoF
B19 | GoF
B20 | LoF
B21 | LoF
B22 | LoF
B23 | GoF

Reference: patent publication US20250032576A1, “CNP Therapy” (BIOMARIN PHARMACEUTICAL INC., priority 2021, published 2025)
